Consider 3 molecules from US20160108113A1 (Genentech, published 2016).

“And” between values parts separate entries of the source, which are not always exact repeats. Equal values may be shown once.

In assay [1] the target is 13C/15N labeled recombinant human α-synuclein (human, UniProt P37840 1-140). As to the kind of experiment: NMR 2D HSQC-TROSY, 1:0.5 α-synuclein:Fab; cutoff for epitope residues was attenuation above 50. The method, then:
(§1) NMR was used to identify the binding epitope of anti-α-synuclein monoclonal antibody 13F3 and of anti-α-synuclein monoclonal antibody 1F7 as follows. NMR samples were prepared by adding a solution of ¹³C/¹⁵N labeled recombinant human α-synuclein in PBS […] at a concentration of 1 mg/ml (71 μM) purchased from Giotto Biotech (Sesto Fiorentino (FI), Italy) to a volume of 180 μl into 3 mm NMR tubes. Complex formation of the antibody bound form of α-synuclein was achieved by addition of an 18 mg/ml (120 μM) solution of antibody 13F3 and 17.8 mg/ml (118 μM) of antibody 1F7 in PBS (pH 7.2) in aliquots of 9 μl to the NMR sample. 2D HSQC-TROSY spectra were recorded at increasing concentration of Fab and the proton-amide cross peak intensity monitored in CCPN. (See Vranken et al (2005) Proteins 59:687-696.) All spectra were recorded at calibrated 300 K on a Bruker 600 MHz spectrometer using a 5 mm TXI cryo-probe. The final molar ratio used for data analysis of 1:0.5 α-synuclein:Fab. All data was processed using Topspin 3.1 (Bruker Karlsruhe, Germany) and visualized and analyzed using CCPN. Samples of ¹³C/¹⁵N labeled α-synuclein were measured in PBS (pH 7.2) buffer at 1 mg/ml corresponding to a concentration of 71 μM. […] Signal intensities were evaluated in CCPN. The signal errors were extrapolated in CCPN based on the signal to noise of the recorded data. […]

Assay [2] concerns the target T1, synthetic peptide corresponding to amino acid residues 105-123 in human α-synuclein (human).
T1 construct: also called unlabeled peptide
T1 peptide: EGAPQEGILEDMPVDPDNE
The assay can be described thus: NMR competition, unlabeled peptide added to the Fab-α-synuclein complex. The method, then:
as §1

The target in assay [3] is T2, recombinant human α-synuclein (human, UniProt P37840 1-140). The assay can be described thus: SPR Biacore T200, antibody capture format, steady-state analysis (text summary of Table 2). The method, then:
(§2) Monovalent affinities of anti-α-synuclein antibodies 13F3 and 1F7 for human α-synuclein were assessed using Surface Plasmon Resonance in a Biacore T200 instrument. These experiments utilized an antibody capture format where the test antibody was immobilized by binding the test antibody to a chip pre-coated with a murine IgG capture reagent and subsequently allowed to bind α-synuclein protein in solution.
(§3) A murine IgG capture chip was prepared using the GE murine IgG capture kit according to the manufacturer's instructions. Briefly, a Series S CM5 sensor chip was activated with a mixture of EDC/NHS before exposure to a solution of capture antibody in a 10 mM sodium acetate (pH 5.0) buffer. Remaining covalent attachment sites were blocked with ethanolamine.
(§4) To assess binding, anti-α-synuclein monoclonal antibody 13F3 and anti-α-synuclein monoclonal antibody 1F7 were captured using a 1 μg/ml solution in running buffer (1×HBSP; 10 mM HEPES, pH 7.4, 150 mM NaCl, 0.05% Tween20) at a flow rate of 10 μl/min. Binding of human α-synuclein in solution was monitored at six different concentrations (a three-fold dilution series spanning concentrations from single-digit nanomolar to greater than 1 μM) and one replicate concentration, at a flow rate of 30 μl/min. […]

In assay [4] the target is T2, recombinant human α-synuclein. The assay can be described thus: SPR Biacore T200, antibody captured on murine IgG capture chip, α-synuclein in solution, steady-state analysis, 25 C, Expt A. The method, then:
as §2, §3, §4
A general note: In SPR one partner is held on a chip, and binding of the other changes the refractive index at the surface.

Assay [5] shares this target. As to the kind of experiment: SPR Biacore T200, antibody captured on murine IgG capture chip, α-synuclein in solution, steady-state analysis, 25 C, Expt B. The method, then: as §2, §3, §4
Assay [6] has as its target T3, peptide corresponding to amino acid residues 37-51 of human α-synuclein (human).
T3 construct: One of a series of 15-mer peptides spanning the length of human α-synuclein; also called 15-mer peptide
T3 peptide: VLYVGSKTKEGVVHG
As to the kind of experiment: peptide mapping with a series of 15-mer peptides.

B1: anti-α-synuclein monoclonal antibody 13F3 Fab (Fab, V domains shown)
VH: QVQLQQSGAELVKPGASVKMSCKASGYTFTSYWITWVKKRPGQGLEWIGDISPGSGSTHYNEKFKSKATLTVDTSSSTAYIQLFSLTSEDSAVYYCAIAQTTFAYWGQGTLVTVSA
VL: DVLMTQTPLSLPVSLGDQASISCRSSQSIVHSNGNTYLEWYLQKPGQSPKLLIYKVSNRFSGVPDRFSGSGSGTDFTLKISRVEAEDLGVYYCFQGSHVPPTFGGGTRLEIK
notes: also called 13F3 Fab fragment
For the molecule B1, the “NMR signal attenuation at isoleucine 112” value in assay [1] came to 1.79 fold. For the same molecule, the binding result in assay [2] is “binds”.

B2: anti-α-synuclein monoclonal antibody 13F3 (mIgG2a) (antibody, V domains shown)
VH: B1 VH
VL: B1 VL
notes: Mouse monoclonal, mIgG2a, expressed recombinantly in 293 cells
Broadly, the Kd is the concentration at which binding is half-saturated. Regarding B2, the Kd was 450 nM and 470 nM in assay [3]; 410 nM and 490 nM in assay [4]; 460 nM in assay [5].

B3: anti-α-synuclein monoclonal antibody 1F7 (mIgG2a) (antibody, V domains shown)
VH: EVQLQQSGAELVKPGASVKLSCTASGFNIKDYYMDWVKQRTEQGLEWIARIDPEDGETKYAPKFQGKATITADTSSNTAYLQLSSLTSEDTAVYYCRVFDYWGQGTTLTVSS
VL: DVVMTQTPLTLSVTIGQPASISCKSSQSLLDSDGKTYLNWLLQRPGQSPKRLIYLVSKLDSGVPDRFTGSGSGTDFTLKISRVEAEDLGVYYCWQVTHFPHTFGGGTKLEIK
notes: as for B2
Regarding B3, in assay [6], the binding result was “binds”. The Kd in assay [3] was found to be 180 nM; in assay [4] it was 130 nM; in assay [5] it was 160 nM.
